From patent US9738884B2, “Therapeutic agent for epithelial and endothelial injury” (NIHON UNIVERSITY, priority 2012, dated 2017)

Test system: A431 cells
Experiment: Adhesion of A431 cells to the substrate, cells removed when the culture dish was shaken (Example 2)
Format: cell-based
Details: 1 pmol/ml, 96-well culture dish
Experimental: FIG. 2 is a graph showing the results of Example 2 of the present application. The numerical value of the vertical axis indicates the number of cells removed from the bottom surface when a culture dish was shaken.
A portion in the entire-length F9 (F9(47-471)), which has an activity of inducing spread of cells on a substrate, was determined using an ability to adhere to the substrate as an indicator. […] Thereafter, an F9 portion having an action to inhibit the aforementioned inhibitory action was examined under conditions in which a culture was performed at 37° C. for 24 hours and the culture dish was then shaken on a shaker. It is to be noted that F9(47-191) is a peptide consisting of amino acids at positions 47 to 191 in the amino acid sequence shown in SEQ ID NO: 8, and that F9(192-202) is a peptide consisting of amino acids at positions 192 to 202 in the amino acid sequence shown in SEQ ID NO: 8. […] Each of the numerical values (on the vertical axis) in the graph of FIG. 2 is indicated as a mean±SD (**: P<0.01). In addition, in FIG. 2, the term “47-191” indicates the conditions in which F9(47-191) was added, and the terms “47-471,” “192-236,” “192-216,” and “192-202” indicate the results obtained in the case of adding F9(47-471), F9(192-236), F9(192-216), and F9(192-202), respectively.

B1: F9(47-191): peptide consisting of amino acids at positions 47 to 191 of SEQ ID NO: 8 (mouse F9) (protein, listed as Mus musculus)
chain: YNSGKLEEFVRGNLERECIEERCSFEEAREVFENTEKTTEFWKQYVDGDQCESNPCLNGGICKDDISSYECWCQVGFEGRNCELDATCNIKNGRCKQFCKNSPDNKVICSCTEGYQLAEDQKSCEPTVPFPCGRASISYSSKKIT
action on adhesion between the cells and the substrate: action to inhibit adhesion between the cells and the substrate
